Test results: publication PMC8740702

How the values were obtained:
[1] = molecular target: X. citri VirD4 all-alpha domain (VirD4AAD) (Xanthomonas citri); experiment: SEC-MALS
[2] = molecular target: X. citri VirD4 all-alpha domain (VirD4AAD) (Xanthomonas citri); experiment: ITC

Row | Substance | stoichiometry N [1] | Kd [2] [µM]
1 | XAC2609_(XVIPCD)Δ20 (residues 311–411) (from UniProt A0AAI7ZGC7 311-411) (domain or fragment) | 1 | 
2 | XAC2609_(XVIPCD) D383A/P384A (from UniProt A0AAI7ZGC7 311-431) (domain or fragment) |  | 28
3 | XAC2609_(XVIPCD) H315A/P316A/D317A (from UniProt A0AAI7ZGC7 311-431) (domain or fragment) |  | 1.2
4 | full-length X-Tfe^XAC2609 (from UniProt A0AAI7ZGC7 1-431) (natural protein) |  | 0.4
5 | X-Tfe^XAC2609 XVIPCD (XAC2609_(XVIPCD), residues 311–431) (from UniProt A0AAI7ZGC7 311-431) (domain or fragment) | 1 | 
6 | XAC2609_(XVIPCD) D363A (from UniProt A0AAI7ZGC7 311-431) (domain or fragment) |  | 29
